From publication PMC10511449, “Custom tuning of Rieske oxygenase reactivity” (Nature Communications, 2023)

Experiments:
[1] = target: T1, phthalate dioxygenase (PDO) (Comamonas testosteroni, UniProt B7WQT1); test: LC-MS product detection; format: biochemical; conditions: VanB reductase, 2 mM substrate, 500 µM NADH, 100 µM ferrous ammonium sulfate, 30 °C
T1 construct: gene CtesDRAFT_PD2022; codon-optimized, MBP tag removed with TEV protease, pMCSG9, E. coli C41(DE3); authors use structure PDB 7V25 (earlier work) for PDO residues
T1 sequence (B7WQT1 1-439): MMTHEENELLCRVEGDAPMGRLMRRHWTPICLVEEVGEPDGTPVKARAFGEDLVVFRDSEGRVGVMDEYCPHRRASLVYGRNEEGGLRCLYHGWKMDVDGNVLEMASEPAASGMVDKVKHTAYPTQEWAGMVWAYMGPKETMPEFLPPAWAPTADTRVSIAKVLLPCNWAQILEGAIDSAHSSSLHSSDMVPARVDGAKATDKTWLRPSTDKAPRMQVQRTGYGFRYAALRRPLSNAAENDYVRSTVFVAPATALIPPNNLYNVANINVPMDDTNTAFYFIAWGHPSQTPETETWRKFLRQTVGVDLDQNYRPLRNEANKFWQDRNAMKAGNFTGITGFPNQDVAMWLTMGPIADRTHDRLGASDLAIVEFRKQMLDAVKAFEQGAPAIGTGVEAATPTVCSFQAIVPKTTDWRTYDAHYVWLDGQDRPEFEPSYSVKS

purified protein [2] = substrate: O=C(O)c1ccc(O)cc1; test: purified protein; conditions: apparent; VanB reductase (4:1), 500 µM NADH, O2, 100 µM ferrous ammonium sulfate
purified protein [3] = substrate: Cc1ccc(C(=O)O)cc1; test: purified protein; conditions: apparent; VanB reductase (4:1), 500 µM NADH, O2, 100 µM ferrous ammonium sulfate
[4] = substrate: O=C(O)c1ccccc1; test: LC-MS product formation, Michaelis-Menten; format: biochemical, Comamonas testosteroni; conditions: apparent; VanB reductase (4:1), 500 µM NADH, O2, 100 µM ferrous ammonium sulfate
Text: (§1) LC-MS product formation, Michaelis-Menten on TsaM (p-toluenesulfonate methyl-monooxygenase)

[5] = substrate: CSc1ccc(C(=O)O)cc1; test: LC-MS product formation, Michaelis-Menten; format: biochemical, Comamonas testosteroni; conditions: apparent; VanB reductase (4:1), 500 µM NADH, O2, 100 µM ferrous ammonium sulfate
Text: as §1

[6] = substrate: CNc1ccc(C(=O)O)cc1; test: LC-MS product formation, Michaelis-Menten; format: biochemical, Comamonas testosteroni; conditions: apparent; VanB reductase (4:1), 500 µM NADH, O2, 100 µM ferrous ammonium sulfate
Text: as §1

[7] = substrate: Cc1cccc(C(=O)O)c1; test: LC-MS product formation, Michaelis-Menten; format: biochemical, Comamonas testosteroni; conditions: apparent; VanB reductase (4:1), 500 µM NADH, O2, 100 µM ferrous ammonium sulfate
Text: as §1

[8] = substrate: Cc1ccc(N)cc1; test: LC-MS product formation, Michaelis-Menten; format: biochemical, Comamonas testosteroni; conditions: apparent; VanB reductase (4:1), 500 µM NADH, O2, 100 µM ferrous ammonium sulfate
Text: as §1

[9] = substrate: CCc1ccc(C(=O)O)cc1; test: LC-MS product formation, Michaelis-Menten; format: biochemical, Comamonas testosteroni; conditions: apparent; VanB reductase (4:1), 500 µM NADH, O2, 100 µM ferrous ammonium sulfate
Text: as §1

[10] = substrate: O=S(=O)(O)c1ccccc1; test: LC-MS product formation, Michaelis-Menten; format: biochemical, Comamonas testosteroni; conditions: apparent; VanB reductase (4:1), 500 µM NADH, O2, 100 µM ferrous ammonium sulfate
Text: as §1

[11] = substrate: CC(C)c1ccc(C(=O)O)cc1; test: LC-MS product formation, Michaelis-Menten; format: biochemical, Comamonas testosteroni; conditions: apparent; VanB reductase (4:1), 500 µM NADH, O2, 100 µM ferrous ammonium sulfate
Text: as §1

[12] = substrate: Cc1ccc(S(=O)(=O)O)cc1; test: LC-MS product formation, Michaelis-Menten; format: biochemical, Comamonas testosteroni; conditions: apparent; VanB reductase (4:1), 500 µM NADH, O2, 100 µM ferrous ammonium sulfate
Text: as §1

[13] = substrate: COc1ccc(C(=O)O)cc1; test: LC-MS product formation, Michaelis-Menten; format: biochemical, Comamonas testosteroni; conditions: apparent; VanB reductase (4:1), 500 µM NADH, O2, 100 µM ferrous ammonium sulfate
Text: as §1

[14] = substrate: Cc1ccc([N+](=O)[O-])cc1; test: LC-MS product formation, Michaelis-Menten; format: biochemical, Comamonas testosteroni; conditions: apparent; VanB reductase (4:1), 500 µM NADH, O2, 100 µM ferrous ammonium sulfate
Text: as §1

[15] = substrate: O=S(=O)(O)c1ccc(O)cc1; test: LC-MS product formation, Michaelis-Menten; format: biochemical, Comamonas testosteroni; conditions: apparent; VanB reductase (4:1), 500 µM NADH, O2, 100 µM ferrous ammonium sulfate
Text: as §1

O=C(O)c1ccccc1 [compound 38, benzoate]
LC-MS product detection [1]: PDO-VanB system catalyzes a dioxygenation reaction to transform benzoate

B1: TsaM (p-toluenesulfonate methyl-monooxygenase) (Comamonas testosteroni) (protein)
chain: MFIRNCWYVAAWDTEIPAEGLFHRTLLNEPVLLYRDTQGRVVALENRCCHRSAPLHIGRQEGDCVRCLYHGLKFNPSGACVEIPGQEQIPPKTCIKSYPVVERNRLVWIWMGDPARANPDDIVDYFWHDSPEWRMKPGYIHYQANYKLIVDNLLDFTHLAWVHPTTLGTDSAASLKPVIERDTTGTGKLTITRWYLNDDMSNLHKGVAKFEGKADRWQIYQWSPPALLRMDTGSAPTGTGAPEGRRVPEAVQFRHTSIQTPETETTSHYWFCQARNFDLDDEALTEKIYQGVVVAFEEDRTMIEAHEKILSQVPDRPMVPIAADAGLNQGRWLLDRLLKAENGGTAP
notes: codon-optimized, N-terminal His-tag with TEV site, E. coli C41(DE3), trimer ~120 kDa; assayed with VanB as non-native reductase
Km (purified protein [2]): 86 ± 2.1 µM | Vmax (purified protein [2]): 1 µM/min | kcat (purified protein [2]): 0.00833 s⁻¹ | kcat/Km (purified protein [2]): 98 M⁻¹ s⁻¹ | Km (purified protein [3]): 13 ± 1.3 µM | Vmax (purified protein [3]): 11 µM/min | kcat (purified protein [3]): 0.0933 s⁻¹ | kcat/Km (purified protein [3]): 7200 M⁻¹ s⁻¹ | Km [4]: 80 ± 1.5 µM | Vmax [4]: 1 µM/min | kcat [4]: 0.00867 ± 0.00217 s⁻¹ | kcat/Km [4]: 99 ± 20 M⁻¹ s⁻¹ | Km [5]: 240 ± 2.5 µM | Vmax [5]: 2.6 µM/min | kcat [5]: 0.0217 ± 0.00267 s⁻¹ | kcat/Km [5]: 88 ± 14 M⁻¹ s⁻¹ | Km [6]: 240 ± 11 µM | Vmax [6]: 3.2 µM/min | kcat [6]: 0.0267 ± 0.00217 s⁻¹ | kcat/Km [6]: 110 ± 8.8 M⁻¹ s⁻¹ | Km [7]: 100 ± 4.2 µM | Vmax [7]: 3.1 µM/min | kcat [7]: 0.0267 ± 0.00617 s⁻¹ | kcat/Km [7]: 260 ± 50 M⁻¹ s⁻¹ | Km [8]: 110 ± 7.7 µM | Vmax [8]: 3.2 µM/min | kcat [8]: 0.0267 ± 0.00233 s⁻¹ | kcat/Km [8]: 230 ± 21 M⁻¹ s⁻¹ | Km [9]: 65 ± 3.8 µM | Vmax [9]: 7.3 µM/min | kcat [9]: 0.06 ± 0.00567 s⁻¹ | kcat/Km [9]: 930 ± 95 M⁻¹ s⁻¹ | Km [10]: 76 ± 3.6 µM | Vmax [10]: 1.1 µM/min | kcat [10]: 0.00967 ± 0.00333 s⁻¹ | kcat/Km [10]: 120 ± 47 M⁻¹ s⁻¹ | Km [11]: 150 ± 6.5 µM | Vmax [11]: 4.1 µM/min | kcat [11]: 0.035 ± 0.00433 s⁻¹ | kcat/Km [11]: 230 ± 24 M⁻¹ s⁻¹ | Km [12]: 3.8 ± 0.60 µM | Vmax [12]: 6.2 µM/min | kcat [12]: 0.05 ± 0.00367 s⁻¹ | kcat/Km [12]: 13000 ± 2200 M⁻¹ s⁻¹ | Km [13]: 180 ± 8.9 µM | Vmax [13]: 3.3 µM/min | kcat [13]: 0.0267 ± 0.00417 s⁻¹ | kcat/Km [13]: 150 ± 20 M⁻¹ s⁻¹ | Km [14]: 230 ± 12 µM | Vmax [14]: 2.9 µM/min | kcat [14]: 0.0233 ± 0.00417 s⁻¹ | kcat/Km [14]: 100 ± 16 M⁻¹ s⁻¹ | Km [15]: 80 ± 2.8 µM | Vmax [15]: 1.3 µM/min | kcat [15]: 0.011 ± 0.00167 s⁻¹ | kcat/Km [15]: 130 ± 22 M⁻¹ s⁻¹
